From paper PMC8215210

The sequences below were run against T1, His-OpaR (Vibrio parahaemolyticus RIMD2210633) (UniProt Q79YV4) (assay: DNase I footprinting). Details: Buffer, salt, pH and temperature not given (as in Zhang et al., 2012, 2017); EMSA on 6% polyacrylamide gel; footprinting with 0, 6, 9, 12 pmol His-OpaR.
T1 sequence: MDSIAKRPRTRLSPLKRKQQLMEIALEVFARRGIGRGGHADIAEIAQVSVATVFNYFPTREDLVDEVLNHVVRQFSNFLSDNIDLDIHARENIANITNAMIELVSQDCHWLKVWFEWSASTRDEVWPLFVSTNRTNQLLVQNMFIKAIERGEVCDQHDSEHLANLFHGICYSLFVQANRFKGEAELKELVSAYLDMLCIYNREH
In the case of “CCATTAAGTGACTTTAGTTCCACTTTTTTAGCTTATTTGATGACATAAGCAACAGTTTCGCCTCCAACCAATAAACAACTGAATACATATTAAAATATTCATTAAATTGACTATTTTTATGATAAACGCTTAATAATAGTTTTATCTATAAACAAACAGTGAGCTTTGTTATAAATTCATTAAAAATTTAACTTTGTATTAATTAGAAAATTCAGCGTCATATTTGTTCAACTGCGA (double strand) [scrA footprint probe]”, the binding is reported as “binds”. With “GCCATATTCCAAACTCGTTGTGCCTGCCTTTTCAAGAACTGCTGGATAACGGTTACATCAAACCGAACTCAGAATTGAAACAAGCATTTAGCGAACTGTCGCTATATAATGACAATTCAATCATTTTCAGCTGTGGCTCAGGTGTGACTGCCTGTATTTTATTGTTGGCAGCTCATCAACTTGGCTTACGCA (double strand) [VPA1176 footprint probe]” the binding was “binds”. “AGACAATCACACCGATAGCCAGTAAGAAAATCATCACAAAAGGGATGAGTACAGCAGTACGTAGTGTAATTTGAGTCTTTGCAGTAGACATTGCCTAGTCACATTAGGGATGGTTCACCTTAATTGTACTGACATTTCTGTTAATATCGAGCGCTAAGCACTCTCATTGTTAACTCACTGCTTAAGTGACGGTCAGTACAACTCTTTTAACTTTCTGGTTAGCGTATTGCGTCCCCAGCCTAATACTTTAGCGGCATCTTGCTTGTGACCTTTAGTGTG (double strand) [VP0117 footprint probe]” was tested, and the binding was “binds”. “CTTACCTTGGCGTACCTCTTGCCAATCCGTACTTTCAAATAAATCGCCTTGTCCTTGCATCCCGTTGCCTATTTAAACCATAAAAATTTCAGATAATTATTACCTTTGCAAAGGCTATTGGTTATTCTTGTAGATAATAAGAATTTTAACAATAAAAGAATAATTCTCGTAGTAACGGACGAGCTAGTGGGGAGCTAATGCGTTATTCACCCAGAAAGCAGT (double strand) [VPA0198 footprint probe]” was tested, and the binding was “binds”. “CCACTCCTCTTACAAGAATGAGGACGACATCAAGAAAATATTAAAAAATGGATAATTAACCATCGGTTAAGCGTAATAACTAATGACGCTATAAAGTTTTTTGTTATTATCAGTTAATTGTCAGTAGTACATGGACTTAACCGTAGTCGTTTCATGGGAATCTTGGAATCCGATATT (double strand) [VP0699 footprint probe]” was tested, and the binding was “binds”. In the case of “GCTTTTCTAGGCACAAAATGACTTTAGAATGGATTAATGCGAAAGCAATTAAAAAAGTGTGAGTAACGGCTGCAAACTATTGATTTCAATGTCAGGTAACGTACGTGTTCTTGAATGATTAATGACATTTTTATTCATATCATTAAACCAACATGCGGCAAAACCCGCTAACTTTGCACCATATACATCCGTCGTGAGGTGGTCACCAACATGCAAAATGTTTTCGGCAGGTAAATCGAGGAACTGCT (double strand) [VP2979 footprint probe]”, the binding is reported as “binds”.
